In patent US5336667A, “Method for inhibiting the ahesion of platelet with alboaggregins: platelet agonists which bind to platelet membrane glycoprotein IB” (Temple University of the Commonwealth System of Higher …, priority 1992, dated 1994):

Tests used:
[1] = test system: alboaggregin A (AL-A), Trimeresurus albolabris venom, SEQ ID NOS: 1, 2, 3 and 4; test: Platelet agglutination induced by AL-A in the presence of inhibitors; assay type: cell-based
Protocol: (§1) Agglutination of platelet-rich plasma, washed platelets and fixed platelets by AL-B was performed according to the method described by Kirby, J Lab Clin. Med. 100, 963-976 (1982). Platelet agglutination was assayed at 37° C. with constant stirring at 1200 RPM in an aggregometer and the extent of light transmission change was measured after two minutes. AL-B was added to suspensions of (A) fixed washed platelets or (B) washed platelets at final concentrations of (A) 0.2, 0.4, 0.6, 0.9 and 1.7 μg/ml and (B) 0.12, 0.24 and 0.48 μg/ml, respectively. The platelet concentration was approximately 3×10^8 platelets/ml in each suspension. AL-B agglutinated both fixed platelets and washed platelets in a dose-dependent manner. Once platelets were maximally agglutinated by AL-B, addition of bovine vWF gave no further response.
All three alboaggregins agglutinated platelet rich plasma and fixed platelets directly. To induce the same amount of platelet agglutination by bovine vWF, twice as much vWF was required to obtain the same change in light transmission. […] Platelet agglutination activity of each of the alboaggregins was similar in terms of their EC50 values.
(§2) Platelet agglutination induced by AL-A or AL-B was not inhibited by EDTA (10 raM) , soybean trypsin inhibitor (0.5 mg/ml) N-ethylmaleimide, (10 raM) or PGE1 (0.35 μM).

[2] = target: T1, alboaggregin B (AL-B), Trimeresurus albolabris venom (Trimeresurus albolabris, UniProt P81115+P81116); test: Platelet agglutination induced by AL-B in the presence of inhibitors; assay type: cell-based
T1 sequence (P81115 24-156): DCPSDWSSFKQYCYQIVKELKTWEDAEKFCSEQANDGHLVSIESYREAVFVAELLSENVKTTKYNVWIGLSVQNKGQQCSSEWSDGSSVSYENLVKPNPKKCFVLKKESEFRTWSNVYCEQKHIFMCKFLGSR
T1 sequence (P81116 24-146): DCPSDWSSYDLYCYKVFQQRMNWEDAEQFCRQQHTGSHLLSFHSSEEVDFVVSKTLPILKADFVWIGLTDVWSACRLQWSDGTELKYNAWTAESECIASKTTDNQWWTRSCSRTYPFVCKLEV
Protocol: as §1, §2

[3] = target: T1, alboaggregin B (AL-B), Trimeresurus albolabris venom; test: Effect of sugars on binding of AL-B to platelets (lectin test); conditions: sugar at concentrations up to 5 mg/ml
Protocol: Several galactose-specific lectins that agglutinate platelets have been reported in snake venoms. Their presence can be detected by inhibition of lectin-induced agglutination by galactose or other sugars. In order to determine whether the alboaggregins function as lectins, we examined the effects of eight different sugars (lactose, galactose, galactosamine, mannosamine, glucosamine, N-acetyl glucosamine, α-methyl glucoside and α-methyl mannoside) at concentrations up to 5 mg/ml.
Binding of ^125 I-bovine vWF and 125I-alboaggregins to labeled platelets was carried out according to Kirby, J. Lab. Clin. Med. 100, 963-976 (1982). Platelets were diluted and incubated at 37° C. for at least 10 min. prior to performing binding studies. Radiolabeled proteins were diluted in Tris-saline buffer containing 1 mg/ml of BSA and preincubated with buffer or a sample to be tested for inhibitory activity. The platelet suspension (1.9×10^8 platelets/ml) was added to the radiolabeled protein (26 ng/ml) and incubated at 37° C. for different periods of time. Unlabeled AL-B (1.8 μg/ml or 8.6 μg/ml) was added to duplicate suspensions after 5 min. of incubation with ^125 I-AL-B. Platelets were separated from free ligand by centrifugation for 4 min. at 12000 g. Supernatant and pellets were counted in an […] gamma counter to determine the amount of free and platelet-bound radioactivity, respectively.

[4] = target: human platelet membrane glycoprotein Ib (human) (UniProt P07359); test: unlabeled AL-C competing on platelets; competitor 125I-AL-B
[5] = target: human platelet membrane glycoprotein Ib (human) (UniProt P07359); test: direct binding of 125I-AL-C to platelets
[6] = target: human platelet membrane glycoprotein Ib (human) (UniProt P07359); test: unlabeled AL-C competing on platelets; competitor 125I-bovine vWF
[7] = target: human platelet membrane glycoprotein Ib (human) (UniProt P07359); test: unlabeled AL-C competing on platelets; competitor 125I-AL-C
[8] = target: human platelet membrane glycoprotein Ib (human) (UniProt P07359); test: unlabeled AL-C competing on platelets; competitor 125I-AL-A
[9] = target: human platelet membrane glycoprotein Ib (human) (UniProt P07359); test: radioligand competition on platelets; competitor 125I-echicetin
[10] = target: human platelet membrane glycoprotein Ib (human) (UniProt P07359); test: Scatchard analysis of 125I-echicetin binding to fixed platelets
[11] = target: human platelet membrane glycoprotein Ib (human) (UniProt P07359)
[12] = target: human platelet membrane glycoprotein Ib (human) (UniProt P07359); test: radioligand competition on fixed platelets; competitor 125I-bovine vWF
[13] = target: human platelet membrane glycoprotein Ib (human) (UniProt P07359); test: Scatchard analysis of 125I-echicetin binding to fixed platelets, three experiments
[14] = target: T2, human platelet membrane glycoprotein Ib (human, UniProt P07359); test: unlabeled bovine vWF competing on platelets; competitor 125I-AL-B
[15] = target: T2, human platelet membrane glycoprotein Ib; test: unlabeled bovine vWF competing on platelets; competitor 125I-bovine vWF
[16] = target: T2, human platelet membrane glycoprotein Ib; test: unlabeled bovine vWF competing on platelets; competitor 125I-AL-A
[17] = target: T2, human platelet membrane glycoprotein Ib; test: unlabeled bovine vWF competing on platelets; competitor 125I-AL-C
[18] = target: T2, human platelet membrane glycoprotein Ib; test: radioligand competition on fixed platelets; competitor 125I-bovine vWF (0.57 µg/ml)
[19] = target: T2, human platelet membrane glycoprotein Ib; test: radioligand competition on platelets; competitor 125I-echicetin

Molecule: O=C(O)CN(CCN(CC(=O)O)CC(=O)O)CC(=O)O [EDTA]
- inhibition of platelet agglutination induced by AL-A ([1]; EDTA 10 raM): not inhibited
- inhibition of platelet agglutination induced by AL-B ([2]; EDTA 10 raM): not inhibited

Molecule: CC(=O)N[C@H]1C(O)O[C@H](CO)[C@@H](O)[C@@H]1O (stereo partly drawn) [N-acetyl glucosamine]
- effect on the binding of AL-B to platelets [3]: None of these sugars showed any effect

Molecule: CCN1C(=O)C=CC1=O [N-ethylmaleimide]
- inhibition of platelet agglutination induced by AL-A ([1]; N-ethylmaleimide 10 raM): not inhibited
- inhibition of platelet agglutination induced by AL-B ([2]; N-ethylmaleimide 10 raM): not inhibited

Molecule: CCCCC[C@H](O)/C=C/[C@H]1[C@H](O)CC(=O)[C@@H]1CCCCCCC(=O)O [PGE1]
- inhibition of platelet agglutination induced by AL-A ([1]; PGE1 0.35 μM): not inhibited
- inhibition of platelet agglutination induced by AL-B ([2]; PGE1 0.35 μM): not inhibited

Molecule: N[C@H]1C(O)O[C@H](CO)[C@H](O)[C@@H]1O (stereo partly drawn) [galactosamine]
- effect on the binding of AL-B to platelets [3]: None of these sugars showed any effect

Molecule: N[C@H]1C(O)O[C@H](CO)[C@@H](O)[C@@H]1O (stereo partly drawn) [glucosamine]
- effect on the binding of AL-B to platelets [3]: None of these sugars showed any effect

Molecule: OC[C@H]1O[C@@H](O[C@H]2[C@H](O)[C@@H](O)C(O)O[C@@H]2CO)[C@H](O)[C@@H](O)[C@H]1O (stereo partly drawn) [lactose]
- effect on the binding of AL-B to platelets [3]: None of these sugars showed any effect

Molecule: N[C@@H]1C(O)O[C@H](CO)[C@@H](O)[C@@H]1O (stereo partly drawn) [mannosamine]
- effect on the binding of AL-B to platelets [3]: None of these sugars showed any effect

Molecule: CO[C@H]1O[C@H](CO)[C@@H](O)[C@H](O)[C@H]1O [α-methyl glucoside]
- effect on the binding of AL-B to platelets [3]: None of these sugars showed any effect

Molecule: CO[C@H]1O[C@H](CO)[C@@H](O)[C@H](O)[C@@H]1O [α-methyl mannoside]
- effect on the binding of AL-B to platelets [3]: None of these sugars showed any effect

Molecule: alboaggregin C (ligand)
- IC50 [4]: 1 µg/mL
- percent of total radioactivity added that bound [5]: 78%
- IC50 [6]: 0.2 µg/mL
- IC50 [7]: 0.3 µg/mL
- IC50 [8]: 1.7 µg/mL

Molecule: echicetin (ligand)
- IC50 [9]: > 0.5 µg/mL
- binding sites per platelet (binding sites per platelet) [10]: 45000
- concentration for 50% inhibition of AL-B-induced agglutination of fixed platelets [11]: 1.05 µg/mL
- concentration for 50% inhibition of botrocetin/human vWF-induced agglutination of fixed platelets [11]: 1.1 µg/mL
- concentration for 50% inhibition of bovine vWF-induced agglutination of fixed platelets [11]: 0.4 µg/mL
- concentration for 50% inhibition of bovine vWF-induced agglutination of washed platelets [11]: 0.15 µg/mL
- IC50 [12]: 0.2 µg/mL
- Kd [13]: 30 nM

Molecule: galactose
- effect on the binding of AL-B to platelets [3]: None of these sugars showed any effect

B1: bovine von Willebrand factor (ligand)
chain: SLSCRPPMVKVVCPADNPRAEGLECTKTCQNYDLECMSTGCVSGCLPAPGMVRHENRCVALERCPCFHQGREYAPGDRVKVDCNSCVCQDRKWNCTDHVCDASCSALGLAHYFTFDGLKYLFPGECQYVLVQDHCGSNPGTFRVLVGNEGCSVPSLKCRKRITILVEGGEIELFD
- IC50 [14]: > 10 µg/mL
- IC50 [15]: 2.1 µg/mL
- IC50 [16]: > 10 µg/mL
- IC50 [17]: > 10 µg/mL
- IC50 [18]: ~10 µg/mL
- IC50 [19]: > 20 µg/mL
